According to patent US20250163183:

Target: LP3, LP9, LP11, and LP18

B1: human activated protein C (APC) (protein)
chain: ANSFLEELRHSSLERECIEEICDFEEAKEIFQNVDDTLAFWSKHVDGDQCLVLPLEHPCASLCCGHGTCIDGIGSFSCDCRSGWEGRFCQREVSFLNCSLDNGGCTHYCLEEVGWRRCSCAPGYKLGDDLLQCHPAVKFPCGRPWKRMEKKRSHLLIDGKMTRRGDSPWQVVLLDSKKKLACGAVLIHPSWVLTAAHCMDESKKLLVRLGEYDLRRWEKWELDLDIKEVFVHPNYSKSTTDNDIALLHLAQPATLSQTIVPICLPDSGLAERELNQAGQETLVTGWGYHSSREKEAKRNRTFVLNFIKIPVVPHNECSEVMSNMVSENMLCAGILGDRQDACEGDSGGPMVASFHGTWFLVGLVSWGEGCGLLHNYGVYTKVSRYLDWIHGHIRDKEAPQKSWAP
APC-mediated SEAP-PAR1 cleavage at 0.7-6 nM nanobody: reduced PAR1 cleavage down to 73-82% of controls
